Measured values as given in US12156889B2, “Methods of administering mesenchymal stem cells activated by cytokines for enhancing immunosuppression” (Rutgers, The State University of New Jersey, priority 2012, dated 2024).

Test system: T cell hybridoma A1.1 cells
Test: T cell hybridoma A1.1 proliferation in co-culture with MSCs
Type: cell-based, mouse
Experimental: FIG. 7. […] MSC cells and T-cell hybridoma A1.1 cell line were co-cultured at a ratio of 1:20. The co-cultures were supplemented with IFNγ+ TNF α, or IL-17A+IFNγ+TNFα. Cell proliferation was measured by the cell density indicated by O.D. 570 nm.
FIGS. 9A, 9B, 9C, 9D, 9E, 9F and 9G. (FIG. 9A). Cloned MSCs were first treated with the indicated combinations of recombinant cytokines IFNγ, TNFα, IL-17A (2 ng/ml each) for 12 hr, then cocultured with CD4^+ T cell blasts at a 1:20 ratio (MSC:T cells), and proliferation was assessed by 3H-thymidine incorporation after an additional 12 hr. (FIG. 9B). The mRNA expression of IL-17 receptor family members in MSCs or Raw 264.7 (Macrophages) were examined by RT-PCR. NC: No RT. (FIG. 9C). Surface expression of IL-17RA was detected by immunofluoresence or flow cytometry in cloned MSCs. (FIGS. 9D and 9E). MSCs were first treated with IFNγ and TNFα with or without IL-17A (10 ng/ml), IFNγ and TNFα were supplemented at different cytokine concentrations, for 12 hr, and then cocultured with CD4^+ T cell blasts (FIG. 9D) or T cell hybridoma A1.1 cells (FIG. 9E) at a ratio of 1:20 for 12 hr. T cell proliferation was measured by 3H-Tdr incorporation. (FIG. 9F). MSCs were first treated with IFNγ and TNFα (2 ng/ml) with graded concentrations of IL-17A, for 12 hr, and then cocultured with T cell hybridoma A1.1 cells at a ratio of 1:10 for 12 hr. T cell proliferation was measured by 3H-thymidine incorporation. (FIG. 9G). MSCs were cocultured with fresh C57BL/6 splenocytes plus anti-CD3, anti-CD28, and antibodies against IL-17A, at a 1:20 or 1:40 ratio (MSCs:splenocytes), for 48 hr, and then cell proliferation was assessed by 3H-thymidine incorporation. Proliferation values represent means±SEM of three wells from a representative of three experiments.
FIGS. 11A, 11B, 11C and 11D. (FIG. 11A) MSCs with Act1 knockdown or control were treated with IL-17A for different time and the phosphorylation levels of IκBα, ERK, p65, JNK were assessed by Western Blot. (FIG. 11B) MSCs with Act1 knockdown or control were treated with IFNγ and TNFα with or without IL-17A (all cytokines supplemented at 5 ng/ml) the protein levels of iNOS and Act1 were assessed by Western Blot. (FIG. 11C) MSCs (Act1 knockdown or control) were treated with different cytokines 12 hr, and iNOS expression was measured by quantitative RT-PCR. mRNA expression values are means±SEM. (FIG. 11D) MSCs (Act1 knockdown or control) were first treated with IFNγ and TNFα with or without IL-17A (all cytokines supplemented at 5 ng/ml) for 12 hr, and then cocultured with T cell hybridoma A1.1 cells at a ratio of 1:10 for 12 hr. T cell proliferation was measured by 3H-Tdr incorporation, taking the proliferation level of A1.1 alone as 100%.
FIGS. 14A and 14B. (FIG. 14A). WT MSCs or auf1^−/− MSCs were first treated with IFNγ and TNFα with or without IL-17A (all cytokines supplemented at 5 ng/ml) for 12 hr, and then cocultured with T cell hybridoma A1.1 cells at a ratio of 1:10 for 12 hr. T cell proliferation was measured by 3H-Tdr incorporation, taking the proliferation level of A1.1 alone as 100%. (FIG. 14B). WT MSCs or auf1^−/− MSCs were first treated with IFNγ and TNFα with or without IL-17A (10 ng/ml), IFNγ and TNFα were supplemented at different cytokine concentrations, for 12 hr, and then cocultured with T cell hybridoma A1.1 cells at a ratio of 1:10 for 12 hr. T cell proliferation was measured by 3H-Tdr incorporation, taking the proliferation level of A1.1 alone as 100%. […]

B1: IL-17A: recombinant mouse interleukin 17A (protein)
chain: AAIIPQSSACPNTEAKDFLQNVKVNLKVFNSLGAKVSSRRPSDYLNRSTSPWTLHRNEDPDRYPSVIWEAQCRHQRCVNAEGKLDHHMNSVLIQQEILVLKREPESCPFTFRVEKMLVGVGCTCVASIVRQAA
5 ng/ml, A1.1 1:10
  enhancement of immunosuppression in absence of Act1: not seen
IFNγ and TNFα 2 ng/ml each, 12 hr, A1.1 1:10
  IL-17A concentration sufficient to elicit a dramatic decrease in T cell proliferation: 0.5 ng/mL
MSC:A1.1 1:20, O.D. 570 nm
  T-cell proliferation in MSC-T cell co-culture: enhanced the suppression
With IFNγ+TNFα, A1.1 1:10
  immunosuppressive activity of wild-type MSCs: increased the immunosuppressive activity
  immunosuppressive effect of auf1−/− MSCs: did not further enhance
